Test results taken from the supplement of paper PMC7877785.
± gives the uncertainty stated by the source.

Test: self-splicing fitness, log relative to wild type (ln ratio); higher = more splicing; Tetrahymena group I intron in knt gene, E. coli kanamycin selection, DiMSum; sequences stand for … in CUCUCU…GGAGGGAAAAGUUAUCAGGCAUGCACCUGGUAGCUAGUCUUUAAACCAAUAGAUUGCAUCGGUUUAAAAGGCAAGACCGUCAAAUUGCGGGAAAGGGGUCAACAGCCGUUCAGUACCAAGUCUCAGGGGAAACUUUGAGAUGGCCUUGCAAAGGGUAUGGUAAUAAGCUGACGGACAUGGUCCUAACCACGCAGCCAAGUCCUAAGUCAACAGAUCUUCUGUUGAUAUGGAUGCAGUUCACAGACUAAAUGUCGGUCGGGGAAGAUGUAUUCUUCUCAUAAGAUAUAGUCGGACCUCUCCUUAAUGGGAGCUAGCGGAUGAAGUGAUGCAACACUGGAGCCGCUGGGAACUAAUUUGUAUGCGAAAGUAUAUUGAUUAGUUUUGGAGUACUCGUGGUCG
Outline: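 Library with all eight P1ex-region intron nucleotides randomised, intron inside the knt kanamycin-resistance gene on pET-22b(+), in E. coli BL21(DE3). Cells grew overnight at 37°C or 30°C on LB agar with or without 25 μg/mL kanamycin (plus 100 μg/mL carbenicillin, 50 μM IPTG, 0.2% rhamnose), in six replicate transformations. Pooled colonies were amplicon-sequenced on Illumina HiSeq 2500. DiMSum fitness is the error-weighted combination of wild-type-normalised replicate fold changes, kanamycin versus none.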

## GAUAAGCAAUAUUACGGGUU
30 °C
  self-splicing fitness (ln): -2.18 ± 0.12
37 °C
  self-splicing fitness (ln): -2.26 ± 0.15

## GAUAAGCAAUAUUACGGUCA
30 °C
  self-splicing fitness (ln): -1.71 ± 0.12
37 °C
  self-splicing fitness (ln): -0.711 ± 0.11

## GAUAAGCAAUAUUACGUACU
30 °C
  self-splicing fitness (ln): -0.466 ± 0.089
37 °C
  self-splicing fitness (ln): -0.373 ± 0.12

## GAUAAGCAAUAUUACGUAGC
30 °C
  self-splicing fitness (ln): -2.22 ± 0.13
37 °C
  self-splicing fitness (ln): -0.793 ± 0.12

## GAUAAGCAAUAUUACGUCUG
30 °C
  self-splicing fitness (ln): -2.51 ± 0.24
37 °C
  self-splicing fitness (ln): -1.57 ± 0.25

## GAUAAGCAAUAUUACGUGGA
30 °C
  self-splicing fitness (ln): -3.96 ± 0.38
37 °C
  self-splicing fitness (ln): -2.55 ± 0.17

## GAUCAGCAAUAUUACGACUA
30 °C
  self-splicing fitness (ln): -0.353 ± 0.4
37 °C
  self-splicing fitness (ln): -0.914 ± 0.2

## GAUCAGCAAUAUUACGAUAG
30 °C
  self-splicing fitness (ln): -0.506 ± 0.067
37 °C
  self-splicing fitness (ln): 0.475 ± 0.093

## GAUCAGCAAUAUUACGAUGA
30 °C
  self-splicing fitness (ln): -0.0415 ± 0.095
37 °C
  self-splicing fitness (ln): 0.313 ± 0.12

## GAUCAGCAAUAUUACGAUUU
30 °C
  self-splicing fitness (ln): -0.286 ± 0.085
37 °C
  self-splicing fitness (ln): 0.0945 ± 0.1

## GAUCAGCAAUAUUACGCAUA
30 °C
  self-splicing fitness (ln): -0.521 ± 0.082
37 °C
  self-splicing fitness (ln): -0.0106 ± 0.084

## GAUCAGCAAUAUUACGCCGU
30 °C
  self-splicing fitness (ln): -0.933 ± 0.098
37 °C
  self-splicing fitness (ln): -0.477 ± 0.12

## GAUCAGCAAUAUUACGCGAA
30 °C
  self-splicing fitness (ln): -1.49 ± 0.086
37 °C
  self-splicing fitness (ln): -0.586 ± 0.09

## GAUCAGCAAUAUUACGCGUG
30 °C
  self-splicing fitness (ln): -0.471 ± 0.048
37 °C
  self-splicing fitness (ln): 0.0677 ± 0.066

## GAUCAGCAAUAUUACGCGUU
30 °C
  self-splicing fitness (ln): -2.22 ± 0.1
37 °C
  self-splicing fitness (ln): -1.21 ± 0.12

## GAUCAGCAAUAUUACGGACG
30 °C
  self-splicing fitness (ln): -0.737 ± 0.13
37 °C
  self-splicing fitness (ln): -0.212 ± 0.18

## GAUCAGCAAUAUUACGGAUC
30 °C
  self-splicing fitness (ln): -2.99 ± 0.2
37 °C
  self-splicing fitness (ln): -2.49 ± 0.36

## GAUCAGCAAUAUUACGGCGU
30 °C
  self-splicing fitness (ln): -0.292 ± 0.086
37 °C
  self-splicing fitness (ln): 0.2 ± 0.1

## GAUCAGCAAUAUUACGGCUU
30 °C
  self-splicing fitness (ln): -0.164 ± 0.092
37 °C
  self-splicing fitness (ln): -0.596 ± 0.1

## GAUCAGCAAUAUUACGGGCC
30 °C
  self-splicing fitness (ln): -0.0569 ± 0.16
37 °C
  self-splicing fitness (ln): -0.311 ± 0.18

## GAUCAGCAAUAUUACGGGUG
30 °C
  self-splicing fitness (ln): -0.356 ± 0.081
37 °C
  self-splicing fitness (ln): -0.245 ± 0.094

## GAUCAGCAAUAUUACGGUCU
30 °C
  self-splicing fitness (ln): -3.56 ± 0.21
37 °C
  self-splicing fitness (ln): -1.9 ± 0.2

## GAUCAGCAAUAUUACGUAAG
30 °C
  self-splicing fitness (ln): -1.58 ± 0.097
37 °C
  self-splicing fitness (ln): -1.13 ± 0.12

## GAUCAGCAAUAUUACGUCUC
30 °C
  self-splicing fitness (ln): -0.796 ± 0.1
37 °C
  self-splicing fitness (ln): 0.0417 ± 0.13

## GAUCAGCAAUAUUACGUGAA
30 °C
  self-splicing fitness (ln): -0.745 ± 0.062
37 °C
  self-splicing fitness (ln): -0.0764 ± 0.076

## GAUCAGCAAUAUUACGUGCG
30 °C
  self-splicing fitness (ln): -1.16 ± 0.086
37 °C
  self-splicing fitness (ln): -0.336 ± 0.093

## GAUCAGCAAUAUUACGUGUG
30 °C
  self-splicing fitness (ln): -0.908 ± 0.044
37 °C
  self-splicing fitness (ln): -0.101 ± 0.06

## GAUCAGCAAUAUUACGUGUU
30 °C
  self-splicing fitness (ln): -1.75 ± 0.06
37 °C
  self-splicing fitness (ln): -1.48 ± 0.09

## GAUCAGCAAUAUUACGUUAC
30 °C
  self-splicing fitness (ln): -2.16 ± 0.097
37 °C
  self-splicing fitness (ln): -1.19 ± 0.11

## GAUCAGCAAUAUUACGUUUC
30 °C
  self-splicing fitness (ln): -2.26 ± 0.12
37 °C
  self-splicing fitness (ln): -0.791 ± 0.1

## GAUGAGCAAUAUUACGAAAC
30 °C
  self-splicing fitness (ln): -3.2 ± 0.26
37 °C
  self-splicing fitness (ln): -2.43 ± 0.24

## GAUGAGCAAUAUUACGAACA
30 °C
  self-splicing fitness (ln): -3.07 ± 0.47
37 °C
  self-splicing fitness (ln): -1.54 ± 0.24

## GAUGAGCAAUAUUACGACAG
30 °C
  self-splicing fitness (ln): -2.31 ± 0.47

## GAUGAGCAAUAUUACGAGUU
30 °C
  self-splicing fitness (ln): -2.18 ± 0.22
37 °C
  self-splicing fitness (ln): -1.47 ± 0.24

## GAUGAGCAAUAUUACGAUAC
30 °C
  self-splicing fitness (ln): -3.7 ± 0.38
37 °C
  self-splicing fitness (ln): -0.654 ± 0.2

## GAUGAGCAAUAUUACGAUCU
37 °C
  self-splicing fitness (ln): -1.86 ± 0.29

## GAUGAGCAAUAUUACGCGAU
30 °C
  self-splicing fitness (ln): -3.05 ± 0.34
37 °C
  self-splicing fitness (ln): -1.57 ± 0.21

## GAUGAGCAAUAUUACGCGCG
30 °C
  self-splicing fitness (ln): -1.68 ± 0.23
37 °C
  self-splicing fitness (ln): -0.518 ± 0.17

## GAUGAGCAAUAUUACGCGGG
30 °C
  self-splicing fitness (ln): -3.55 ± 0.42
37 °C
  self-splicing fitness (ln): -3.59 ± 0.47

## GAUGAGCAAUAUUACGCUCC
30 °C
  self-splicing fitness (ln): -3 ± 0.3

## GAUGAGCAAUAUUACGCUUA
30 °C
  self-splicing fitness (ln): -2.21 ± 0.28
37 °C
  self-splicing fitness (ln): -2.33 ± 0.25

## GAUGAGCAAUAUUACGGAAA
37 °C
  self-splicing fitness (ln): -2.2 ± 0.31

## GAUGAGCAAUAUUACGGAAC
37 °C
  self-splicing fitness (ln): 0.0424 ± 0.44

## GAUGAGCAAUAUUACGGUAG
30 °C
  self-splicing fitness (ln): -2.01 ± 0.14
37 °C
  self-splicing fitness (ln): -2.2 ± 0.21

## GAUGAGCAAUAUUACGGUUC
30 °C
  self-splicing fitness (ln): -4.06 ± 0.33
37 °C
  self-splicing fitness (ln): -2.32 ± 0.35

## GAUGAGCAAUAUUACGGUUU
30 °C
  self-splicing fitness (ln): -2.06 ± 0.097
37 °C
  self-splicing fitness (ln): -1.04 ± 0.13

## GAUGAGCAAUAUUACGUGUG
30 °C
  self-splicing fitness (ln): -2.57 ± 0.14
37 °C
  self-splicing fitness (ln): -1.45 ± 0.12

## GAUGAGCAAUAUUACGUUGA
30 °C
  self-splicing fitness (ln): -3.32 ± 0.43
37 °C
  self-splicing fitness (ln): -1.5 ± 0.2

## GAUUAGCAAUAUUACGAAAC
30 °C
  self-splicing fitness (ln): -2.38 ± 0.16
37 °C
  self-splicing fitness (ln): -1.61 ± 0.17
